A short description of the series: soluble on expression in E. coli; label from the status in PepcDB or PDB records.
Consider “SAQTTDTGWMTNPQHPPVQTRFVLTGQQDPQAKTLTGYLDVKLTGDWKTYWRSPGEGGVAPSIDWQNSQNLSKVDWQWPYPQKFELLGIETLGYKGDTLFPMTLHIDNMSKPVTIDAVLTLSSCTTICVLTDYQIQLTFLPSELQIDEQVMFSYAQAVSNVPQPSPFIDVTQASWDANQSKLQIKLTNTQGWNQPQVLVDGVDEATRDYSFKLEGIHQEGNTVTASYLVDTWLGDVELSDQSLFVTIKDANLLAEETTQAIAEAIVDPLPSTSVVS”, for which the “soluble on expression in E. coli” value is given as “soluble”.

Consider “SASSIICQEHCQISGQAKIDILLVGDVTVGYLADTVQKLFANIAEVTITISDTKEAAALLDDCIFNMVLLKVPSSLSAEELEAIKLIRFGKKKNTHSLFVFIIPENFKGCISGHGMDIALTEPLTMEKMSNVVKYWTTCPSNTVKTENATGPEELGLPLQRSYSEHLGYFPTDLFACSESLRNGNGLELNASLSEFEKNKKISLLHSSKEKLRRLYRKHSSFCFW”, for which the “soluble on expression in E. coli” value is listed as “soluble”.

Take “SASVLKETAGLYETLKAEWNKKNPNLNKCGELLSKLKISLLELNFLPTTGTKLTKQQLILARDVLEIGALWSILKKDIPSFERYMAQLKCYYFDYKDELPESAYRHQLLGLNLLFLLSQNRVSEFHTELERLSAKDIQTNVYIRHPVSLEQYLMEGSYNKVFLAKGNIPAESYTFFIDTLLDTIRDEIAGCIEKAYEQIQFNEATRVLFFSSPKKMTDYAKKRNWTQSPDGYYSFSTQHQKTEEVTIPSTELAKQVIEYARQLEMIV”: the “soluble on expression in E. coli” value is given as “soluble”.

With “SATREWFVMNAQQTKLALESPPLFAVKKDDDKDHTCDTGEEPYALVGSPVFNPLEDYKREVVSIIDEYFSSGDVEVAASDLMDLGLSEYHPYFVKRLVSMAMDRGNKEKEKASVLLSRLYALVVSPDQIRVGFIRLLESVGDLALDIPDAVNVLALFIARAIVDEILPPVFLARAKKTLPHSSQGFQVILVSENSYLSAPHHAELVETKWGGSTHITVEETKRKISEFLNEYVENGDTREACRCIRELGVSFFHHEIVKSGLVLVMESRTSEPLILKLLKEATEEGLISSSQMAKGFSRVADSLDDLSLDIPSAKTLFESIVPKAIIGGWLDEDSFKERSDQNGGSENLRRFKKDAETIIQEYFLSDDIPELIRSLEDLGLPEYNPVFLKKLITLAMDRKNKEKEMASVFLASLHMEMFSTEDFINGFIMLLESAEDTALDILAASDELALFLARAVIDDVLAPLNLEEISNSLPPKSTGSETIRSARSLISARHAGERLLRSWGGGTGWAVEDAKDKIWKLLEEYEVGGVISEACRCIRDLGMPFFNHEVVKKALVMAMEKKNDRMLNLLQECFAEGIITTNQMTKGFGRVKDSLDDLSLDIPNAEEKFNSYVAHAEENGWLHRDFGCSTDS”, the “soluble on expression in E. coli” value is on record as “soluble”.

As for “SATSTTIAKHIGNSNPLIDHHLGADPVALTYNGRVYIYMSSDDYEYNSNGTIKDNSFANLNRVFVISSADMVNWTDHGAIPVAGANGANGGRGIAKWAGASWAPSIAVKKINGKDKFFLYFANSGGGIGVLTADSPIGPWTDPIGKPLVTPSTPGMSGVVWLFDPAVFVDDDGTGYLYAGGGVPGVSNPTQGQWANPKTARVIKLGPDMTSVVGSASTIDAPFMFEDSGLHKYNGTYYYSYCINFGGTHPADKPPGEIGYMTSSSPMGPFTYRGHFLKNPGAFFGGGGNNHHAVFNFKNEWYVVYHAQTVSSALFGAGKGYRSPHINKLVHNADGSIQEVAANYAGVTQISNLNPYNRVEAETFAWNGRILTEKSTAPGGPVNNQHVTSIQNGDWIAVGNADFGAGGARSFKANVASTLGGKIEVRLDSADGKLVGTLNVPSTGGAQTWREIETAVSGATGVHKVFFVFTGTGTGNLFNFDYWQFTQR”, the “soluble on expression in E. coli” value was “soluble”.

Regarding “SAVPAILQVITESTGLGFAAVARVTEDSWTACAVLDNLGFGLKPGGELELISTICHEIRASHKPVVIDHVAEDELFCAHHTPRRYNFQSYISIPIFLTDGSFFGTICALDPKPAKLTGTPIEAMMVSFARLLALQIEAEENMQRVQ”, the “soluble on expression in E. coli” value is “soluble”.

Regarding “SDLDYGGVPLWINRFLGEPSVLTLKDRIDPGWYRAVNTQSCPLECDCPIQWPTAIYCDHRGLNQLPSGLPFRLQYLFLQGNNITSLGSRAFDNTTYLRWLILDHNELLSEQLDNVLFSSLTRLVNLFINHNNLTKVPAGLPSGLKQLRLAYNHIEKISEGDFQNLDSLTLILLQGNRLKTIEEGDFKGLGALNLLDLSHNFLDTFPKHLPPSVQQLYLSNNSLTGLSENSLHAFSGLRYLRLGHNKLRNERLDPGAFNLTSLVELDLSYNRLTEIPSVPITLQYLYLEVNHIQEFNVSSFCRTVGPTSYSRMKILRLDGNKLEYHKLPPDWVFCLRVLHNIYI”, the “soluble on expression in E. coli” value is recorded as “soluble”.

For the sequence “SEKANALFETIFMENIMASPIAQTYMGIKQDYDKWDEIGDEADALELARTQKQLAEINQLDASKLDPQTRLSLALLTQNLNNDIKDYQWRYHTYPVNQMRGGHSMIASFLINQHQITDVSDAKAYISRLNGVPKRLTQLQKALEVRAEKGIIAPKFVFGYVISDSQNILKGAPFDKNEDSALLADFRKKVKALSIPETEKAPLIAEAEKALTSQVAPAYKALISYIKTLEAKADTRDGVWKLPDGDAFYNNALARTTTTDMTADEIHQLGLAEVERIHNEMRAIMKKVHFNGTLQAFFAFMRNNPQFYYPNTPEGKAAYLADATQLIDNMHSRLDEVFKVKPKAAMIVKQVESFREKSAGKAFYEQPAPDGSRPGSYYANLYDMKAMPKYQMEALAYHEGIPGHHMQIAISQELKDIPKFRKFGGYTAYIEGWGLYSESFPKEMGLYADPYSDFGRLAMELWRACRLVVDTGIHAKKWTREQGIAYYVDNTPNAKSDAVKMVERHIVMPSQATAYKVGMIKLLELRHKAEKQLGDKFDIRDFHTLILANGALPLDVLEEHVNQWIASVNK”, the “soluble on expression in E. coli” value is “not soluble”.

As for “SEMLASLKEHPNELLDLLNSIITDFELAVDDLIENFMQSDFDALKLTMHTTKGMALNLGLKILASQALELETQLKMNQVPAIEQLQMLINRLQVNIHQGHRLRDELVKAQQNSEQVF”, the “soluble on expression in E. coli” value is on record as “not soluble”.

Regarding “SEPGETIVEAMQREVKEEAGLLCEPVTLLSVEERGASWIRFVFLARPTGGVLKTSKDADSESLQAGWYPRVSLPTPLRAHDVLHLVELGAKFCQQAMHPLILPQELPCSVVCQRLVTTFTTVQSVWVLVGTVGTPHLPITACGFTPMEQRGGIKVAILRLLQECLTLHSLAVETKGLLGLQHLGRDHVDGVCLNVLVTVAFRNPGIQDEPPKIRGENYFWWKVLEEDLQKLLLYRLQESSVIPLSR”, the “soluble on expression in E. coli” value was “soluble”.

Turning to “SEQHAQGADAVVDLNNELKTRREKLANLREQGIAFPNDFRRDHTSDQLHAEFDGKENEELEALNIEVAVAGRMMTRRIMGKASFVTLQDVGGRIQLYVARDDLPEGVYNEQFKKWDLGDILGAKGKLFKTKTGELSIHCTELRLLTKALRPLPDKFHGLQDQEARYRQRYLDLISNDESRNTFKVRSQILSGIRQFMVNRGFMEVETPMMQVIPGGAAARPFITHHNALDLDMYLRIAPELYLKRLVVGGFERVFEINRNFRNEGISVRHNPEFTMMELYMAYADYKDLIELTESLFRTLAQDILGKTEVTYGDVTLDFGKPFEKLTMREAIKKYRPETDMADLDNFDSAKAIAESIGIHVEKSWGLGRIVTEIFEEVAEAHLIQPTFITEYPAEVSPLARRNDVNPEITDRFEFFIGGREIGNGFSELNDAEDQAQRFLDQVAAKDAGDDEAMFYDEDYVTALEHGLPPTAGLGIGIDRMVMLFTNSHTIRDVILFPAMRPVK”, the “soluble on expression in E. coli” value is reported as “soluble”.

Take “SEQKYEEDIQKLQQEIEMLEAEQEETLRSIFVQHGDRLQQGVKSACEERGGGGAQQHTLSKLITEVRELEKDLRRQTEINGITLNECFVKTLHKSERKLIQQLRLAGHCGLLLFQVEFAVTEIQEDNVLHRRVTELNIVVDGVEFKDFSAFVSRVEDTKDLLLFFRTLRTFSERCEDRRQTFQHFQEKYPDVVNLPEGCRSEIMIIRSPQLPGISMTLFWKIHVSKEGVVKPLLDLLLKMPDQALELDTKKVMEKASDYFQSLLQLLGVEASIEGLIRTVCS”: the “soluble on expression in E. coli” value is “soluble”.

Turning to “SEVLRPQLIRIDGRNYRKNPVQEQTYQHEEDEEDFYQGSMECADEPCDAYEVEQTPQGFRSTLRAPSLLYKHIVGKRGDTRKKIEMETKTSISIPKPGQDGEIVITGQHRNGVISARTRIDVLLDTFRRKQPFTHFLAFFLNEVEVQEGFLRFQEEVLAKCSMDHGVDSSIFQNPKKLHLTIGMLVLLSEEEIQQTCEMLQQCKEEFINDISGGKPLEVEMAGIEYMNDDPGMVDVLYAKVHMKDGSNRLQELVDRVLERFQASGLIVKEWNSVKLHATVMNTLFRKDPNAEGRYNLYTAEGKYIFKERESFDGRNILKLFENFYFGSLKLNSIHISQRFTVDSFGNYASCGQIDFS”, the “soluble on expression in E. coli” value is on record as “soluble”.

Consider “SFWGWLNAVFNKVDHDRIRDVGPDRAASEWLLRCGAMVRYHGQQRWQKDYNHLPTGPLDKYKIQAIDATDSCIMSIGFDHMEGLQYVEKIRLCKCHYIEDGCLERLSQLENLQKSMLEMEIISCGNVTDKGIIALHHFRNLKYLFLSDLPGVKEKEKIVQAFKTSLPSLELKLDLK”, for which the “soluble on expression in E. coli” value was “soluble”.

“SGDRSMVEVLADHPGELVRTDSPNFLSSVLPTHWRSNKTLPIAFKVVALGDVPDGTLVTVMAGNDENYSAELRNATAAMKNQVARFNDLRFVGRSGRGKSFTLTITVFTNPPQVATYHRAIKITVDGPREPRRHRQKLDD”: the “soluble on expression in E. coli” value is “soluble”.

“SGIMHQINNVYSLTPLSLPMELTPSCNEFYLKTWSEWEKNGTPGEQRNIAFNRLKICLQNQEAELNLSELDLKTLPDLPPQITTLEIRKNLLTHLPDLPPMLKVIHAQFNQLESLPALPETLEELNAGDNKIKELPFLPENLTHLRVHNNRLHILPLLPPELKLLVVSGNRLDSIPPFPDKLEGLALANNFIEQLPELPFSMNRAVLMNNNLTTLPESVLRLAQNAFVNVAGNPLSGHT”: the “soluble on expression in E. coli” value is reported as “not soluble”.

As to “SGLIGEGLKDVKSAAGDTRVDNFADRLAALSQAAQPARAVAAPASAPLMNQPLAMHQSGWTEGIVDRVMYLSSQNLKTADIKLEPAELGRLDIRINMAPEQQTQVTFMSAHMGVRDALESQMSKLRESFVQQGLGNVDVNVSDQS”, the “soluble on expression in E. coli” value is “not soluble”.

As to “SGNLDDNKFTWVIKNVPTLNSDMLFSNYFVIGGCSWRVVAHSKENNFKESLSLTLIVAEDSAQKMGCGWSRYAKIIFTLVNQISEILSQRIETMFDQKSSVFSSETMFSIGKFDEHFAGFIVNGEIKIVVEFLEIIDKLVLSKESNPPFKKTKLNNDGEVSKDLIREVPVIMESIVVNGFHVLPSQVEFVKRIFEKHPDVAKEFRPTNRIVKTAYMNVLLSLIETLRQSPREISKNDLDGACGLLRSMKEAGFKLDWLEKKLNEVLEKKEKEESYETRMREIEEEMKDLKAKALDVGAPLRLDDVV”, the “soluble on expression in E. coli” value is reported as “not soluble”.

Take “SIPAGITAAYIHKGHDTTHGGGEMVLEVPHDKTIPVLRFLRDHSSCLYDCFIDCTAADFPQKPQRFRVVYNLLSLKYSSRIRVQTHVDEVTPIESATCLFKGANWPEREVWDLFGVFFYNHPDLRRILTDYGFEGHPLRKDFPLSGYVEVRYDDTEKRVVIEPVEITQEYRAFDYTSPWEVFPEGGNFEEAEKLPERV”: the “soluble on expression in E. coli” value was “soluble”.

For the sequence “SKAQEKGEAISLAFKGVKAEFLKRPEADVHFVCNDGHVIDEMLDHTIATGERVNRDVKIIALCPSLHGQEPMAEFALTLSIKKAAQHTKKAA”, the “soluble on expression in E. coli” value is recorded as “not soluble”.

Regarding “SKFLDVECLSELQRKLNDLELTDYRVRCQLEAYSCKPAGFDKKLSKSLEQKLVEQLEASPRVLEGSPVGSLEDQSARKTLINLICTLNAAHQDYDFSSLQLSRLKRVQDVRSLQQHVDSLFELFYRQLGLEFRQFLWENIGQIIRPEECEVYSYLPDYESDPYSASGALWSFCYFFYHKNMKKILFFSCTLSTRLAEDSESTESVDEEDFGKESSGLETPFAMFETVI”, the “soluble on expression in E. coli” value is on record as “soluble”.
